Key:
Saccharomyces cerevisiae [1] = assay: protein stability index of tFT-peptide fusion in deletion strain of DAS1 (PSI (0-1 scale)); higher = more stable (slower turnover)
Protocol: (§1)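 MPS profiling in S. cerevisiae of two library types built from selected 12-aa C-degron peptides (IN1, IN2, LN1, LN3, VN2, R1-R5, W1-W3, Atg1 and Rpa12 C-termini): saturation mutagenesis libraries and C-terminal +1 capping libraries (13 aa). Each peptide is fused to the C-terminus of a sfGFP-mCherry timer, after a GGGS linker. Cells are FACS-sorted into 8 mCherry/sfGFP bins and sequenced. PSI runs from 0 (unstable) to 1 (stable), measured once in wild type and in the das1Δ or doa10Δ background.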

Saccharomyces cerevisiae [2] = assay: protein stability index of tFT-peptide fusion in wild type (PSI (0-1 scale)); higher = more stable (slower turnover); conditions: genetic background: wild type
Protocol: as §1
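Throughout, for protein stability index of tFT-peptide fusion in deletion strain of DAS1: PSI is a weighted mean of each variant's read distribution over the sorted stability bins, computed only for variants having over 10 reads in total.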
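Throughout, for protein stability index of tFT-peptide fusion in wild type: PSI derived as read-weighted mean over the 8 sorting bins, only variants exceeding 10 total reads kept, mCherry placed adjacent to the peptide and sfGFP distal.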

Sequence	protein stability index (Saccharomyces cerevisiae [1])	protein stability index (Saccharomyces cerevisiae [2])
FSMRFTFRYWVN	0.501	0.0475
FSMRITFRYWVN	0.336	0.0393
FSMRRTFRYWVN	0.616	0.102
FSMRWTFAYWVN	0.39	0.047
FSMRWTFRAWVN	0.425	0.104
FSMRWTFRDWVN	0.724	0.595
FSMRWTFRQWVN	0.427	0.109
FSMRWTFRYFVN	0.631	0.0378
FSMRWTFRYGVN	0.527	0.338
FSMRWTFRYKVN	0.691	0.0899
FSMRWTFTYWVN	0.389	0.0917
FSMRWTMRYWVN	0.482	0.0449
FSMRWTSRYWVN	0.598	0.105
FSMRWTTRYWVN	0.566	0.0528
FSMRYTFRYWVN	0.648	0.0639
FSRRWTFRYWVN	0.636	0.0509
GDKRNHLIKLLN	0.613	0.158
GSMRWTFRYWVN	0.677	0.0781
HLIQPLPVQFLN	0.713	0.13
IDKRNHLIKLLN	0.584	0.143
KKHCKGQKQKIN	0.637	0.13
KKHEKGQKQKIN	0.603	0.0983
KKHKIGQKQKIN	0.563	0.142
KKHKKDQKQKIN	0.606	0.0671

Sequence	protein stability index (Saccharomyces cerevisiae [1])	protein stability index (Saccharomyces cerevisiae [2])
KKHKKGIKQKIN	0.588	0.0645
KKHKKGMKQKIN	0.659	0.0523
KKHKKGNKQKIN	0.601	0.0792
KKHKKGQCQKIN	0.801	0.16
KKHKKGQHQKIN	0.579	0.0824
KKHKKGQIQKIN	0.569	0.109
KKHKKGQKLKIN	0.562	0.114
KKHKKGQKQFIN	0.558	0.209
KKHKKGQKQHIN	0.648	0.435
KKHKKGQKQKINA	0.655	0.259
KKHKKGQKQKIQ	0.594	0.37
KKHKKGQKQKSN	0.615	0.553
KKHKKGQKQWIN	0.657	0.553
KKHKKGQKYKIN	0.634	0.199
KKHKKGRKQKIN	0.586	0.0973
KKHKKGVKQKIN	0.743	0.128
KKLKKGQKQKIN	0.594	0.0797
KKNKKGQKQKIN	0.598	0.141
KVHKKGQKQKIN	0.64	0.0686
KWHKKGQKQKIN	0.562	0.108
LGILRQKMNHQN	0.685	0.141
LKILKQKMNHQN	0.68	0.222
LKILRFKMNHQN	0.667	0.201
LKILRPKMNHQN	0.669	0.541

Sequence	protein stability index (Saccharomyces cerevisiae [1])	protein stability index (Saccharomyces cerevisiae [2])
LKILRQKMAHQN	0.673	0.178
LKILRQKMEHQN	0.671	0.404
LKILRQKMNHDN	0.671	0.39
LKILRQKMNHEN	0.671	0.237
LKILRQKMNHQNE	0.656	0.652
LKILRQKMNHQNL	0.697	0.672
LKILRQKMNHQNN	0.671	0.585
LKILRQKMNHQT	0.671	0.252
LKILRQKMNHVN	0.666	0.206
LKILRQKMNHYN	0.657	0.223
LKILRQKMNIQN	0.686	0.214
LKILRQKMNSQN	0.672	0.213
LKILRQKMPHQN	0.692	0.681
LKILRQKPNHQN	0.675	0.68
LKILRSKMNHQN	0.666	0.208
LKILRWKMNHQN	0.658	0.209
LKILRYKMNHQN	0.64	0.181
LKILSQKMNHQN	0.681	0.232
LKKLRQKMNHQN	0.68	0.235
LKNLRQKMNHQN	0.678	0.208
LVDYLSCVACIN	0.354	0.21
LVFYLSCVACIN	0.0573	0.016
LVIYLSCVACIN	0.0377	0.0156
LVNYLSCVACIN	0.259	0.0691

Sequence	protein stability index (Saccharomyces cerevisiae [1])	protein stability index (Saccharomyces cerevisiae [2])
LVVALSCVACIN	0.0802	0.0223
LVVELSCVACIN	0.0632	0.0174
LVVFLSCVACIN	0.0386	0.0196
LVVQLSCVACIN	0.0857	0.0253
LVVYGSCVACIN	0.305	0.245
LVVYLKCVACIN	0.0351	0.0164
LVVYLSCHACIN	0.0466	0.0126
LVVYLSCRACIN	0.0311	0.0228
LVVYLSCVACFN	0.076	0.0281
LVVYLSCVACGN	0.0998	0.0824
LVVYLSCVACIM	0.022	0.0115
LVVYLSCVACINE	0.0324	0.0198
LVVYLSCVACTN	0.0308	0.0171
LVVYLSCVACYN	0.0338	0.0154
LVVYLSCVAIIN	0.0381	0.0151
LVVYLSCVWCIN	0.263	0.0553
LVVYLSDVACIN	0.495	0.458
LVVYLSFVACIN	0.116	0.0293
MKHKKGQKQKIN	0.649	0.0627
MSLAASFWRVVG	0.67	0.124
NDKRNHLIKLLN	0.609	0.128
NSMRWTFRYWVN	0.598	0.0828
NTSCGYKFRTNN	0.68	0.217
PDDRNHLIKLLN	0.594	0.157

Sequence	protein stability index (Saccharomyces cerevisiae [1])	protein stability index (Saccharomyces cerevisiae [2])
PDGRNHLIKLLN	0.601	0.161
PDKRFHLIKLLN	0.672	0.113
PDKRNHLCKLLN	0.665	0.131
PDKRNHLICLLN	0.608	0.269
PDKRNHLIDLLN	0.624	0.591
PDKRNHLIKKLN	0.581	0.0795
PDKRNHLIKLLQ	0.605	0.205
PDKRNHLIKSLN	0.627	0.298
PDKRNHLIKYLN	0.638	0.0757
PDKRNHLMKLLN	0.592	0.089
PDKRNHLWKLLN	0.601	0.0949
PDKRNHQIKLLN	0.609	0.127
PDKRNHYIKLLN	0.683	0.0965
PDKRNILIKLLN	0.598	0.165
PDKRNKLIKLLN	0.671	0.115
PDQRNHLIKLLN	0.585	0.136
PFLAASFWRVVG	0.693	0.154
PGLAASFWRVVG	0.695	0.172
PRWRVGLWRGAS	0.707	0.364
PSLAASFCRVVG	0.645	0.618
PSLAASFFRVVG	0.654	0.609

Source: the supplement of paper PMC10724198
